Earlier results on one substance are cited in publication PMC3648593.

The term Kd denotes the free concentration of one partner at which half of the binding sites on the other are occupied at equilibrium, for simple one-to-one binding.

In the data set the target is Met (Homo sapiens) (UniProt P08581).
Chain of UniProt P08581 (P08581 25-932): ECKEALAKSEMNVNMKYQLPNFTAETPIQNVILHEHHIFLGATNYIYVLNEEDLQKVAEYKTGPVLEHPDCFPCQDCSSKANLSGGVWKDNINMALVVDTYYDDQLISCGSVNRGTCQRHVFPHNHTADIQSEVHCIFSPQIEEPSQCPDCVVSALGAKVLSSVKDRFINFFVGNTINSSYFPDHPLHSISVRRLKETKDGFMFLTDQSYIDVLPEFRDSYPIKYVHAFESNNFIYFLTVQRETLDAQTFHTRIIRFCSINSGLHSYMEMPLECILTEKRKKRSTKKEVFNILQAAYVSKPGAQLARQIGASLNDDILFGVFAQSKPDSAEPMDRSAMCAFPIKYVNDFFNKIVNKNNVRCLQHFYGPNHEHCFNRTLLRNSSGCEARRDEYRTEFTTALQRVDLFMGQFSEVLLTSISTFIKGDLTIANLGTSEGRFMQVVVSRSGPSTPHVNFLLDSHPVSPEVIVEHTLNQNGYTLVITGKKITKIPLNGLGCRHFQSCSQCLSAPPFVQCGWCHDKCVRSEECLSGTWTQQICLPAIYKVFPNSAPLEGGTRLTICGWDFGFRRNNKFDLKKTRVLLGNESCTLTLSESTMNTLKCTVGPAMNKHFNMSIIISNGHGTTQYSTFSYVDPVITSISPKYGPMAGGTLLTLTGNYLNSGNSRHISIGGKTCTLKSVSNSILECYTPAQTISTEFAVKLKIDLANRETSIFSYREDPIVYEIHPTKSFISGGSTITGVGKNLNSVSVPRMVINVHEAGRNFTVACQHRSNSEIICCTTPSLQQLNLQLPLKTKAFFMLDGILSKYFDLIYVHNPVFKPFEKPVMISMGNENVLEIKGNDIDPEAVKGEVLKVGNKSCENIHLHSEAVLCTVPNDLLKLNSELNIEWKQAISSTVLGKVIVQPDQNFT

In the case of Decorin (from UniProt P07585), the Kd is 2 nM.
